Experimental data taken from US20230301998A1 (SANFORD BURNHAM PREBYS MEDICAL DISCOVERY INSTITUTE, published 2023).
One block for each binder: values may come before it.

Columns and labels:
Flag-tagged SHARPIN = target: T1, Flag-tagged SHARPIN (human, UniProt Q9H0F6 1-387); test: Flag IP of Flag-SHARPIN from WM115 lysate, on-bead tryptic digestion, LC/MS-MS
T1 construct: also called Flag-SHARPIN; not shown: FLAG tag
T1 sequence (looked up): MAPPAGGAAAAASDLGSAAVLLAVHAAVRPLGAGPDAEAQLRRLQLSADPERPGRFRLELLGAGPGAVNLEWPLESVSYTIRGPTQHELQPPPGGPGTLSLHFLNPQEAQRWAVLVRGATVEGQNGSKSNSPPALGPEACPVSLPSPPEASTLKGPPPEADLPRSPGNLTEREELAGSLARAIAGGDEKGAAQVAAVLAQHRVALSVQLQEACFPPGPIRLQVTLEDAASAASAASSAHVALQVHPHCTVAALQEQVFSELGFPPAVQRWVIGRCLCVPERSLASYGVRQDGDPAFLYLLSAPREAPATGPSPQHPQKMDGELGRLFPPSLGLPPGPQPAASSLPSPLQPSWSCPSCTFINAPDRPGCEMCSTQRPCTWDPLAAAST
Procedure: To identify SHARPIN-interacting proteins, WM115 cells were transfected with Flag-tagged SHARPIN or control empty plasmid. Cell lysates were prepared using 1% Triton X-100 buffer [50 mM Tris-HCl, pH7.4, 1% (v/v) Triton X-100, 150 mM NaCl, 1 mM EDTA, and protease and phosphatase inhibitor cocktails (Thermo Fisher Scientific)]. Lysates were pre-cleared with protein A/G beads (Santa Cruz Biotechnology) for 1 h at 4° C. followed by immunoprecipitation using FLAG-M2-agarose beads (Sigma-Aldrich) overnight at 4° C. Beads were then washed with lysis buffer and TBS containing lx protease inhibitor cocktail before being subjected to on-bead tryptic digestion followed by mass spectrometry. In Vitro Methylation Assay.

[1] = target: T2, Interferon-activable protein 204 (Mus musculus) (IFI204) (Mus musculus, UniProt P0DOV2 1-619); test: co-immunoprecipitation and immunoblot, B16 cell lysates (FIG. 8D)
T2 construct: also called IF204
T2 sequence: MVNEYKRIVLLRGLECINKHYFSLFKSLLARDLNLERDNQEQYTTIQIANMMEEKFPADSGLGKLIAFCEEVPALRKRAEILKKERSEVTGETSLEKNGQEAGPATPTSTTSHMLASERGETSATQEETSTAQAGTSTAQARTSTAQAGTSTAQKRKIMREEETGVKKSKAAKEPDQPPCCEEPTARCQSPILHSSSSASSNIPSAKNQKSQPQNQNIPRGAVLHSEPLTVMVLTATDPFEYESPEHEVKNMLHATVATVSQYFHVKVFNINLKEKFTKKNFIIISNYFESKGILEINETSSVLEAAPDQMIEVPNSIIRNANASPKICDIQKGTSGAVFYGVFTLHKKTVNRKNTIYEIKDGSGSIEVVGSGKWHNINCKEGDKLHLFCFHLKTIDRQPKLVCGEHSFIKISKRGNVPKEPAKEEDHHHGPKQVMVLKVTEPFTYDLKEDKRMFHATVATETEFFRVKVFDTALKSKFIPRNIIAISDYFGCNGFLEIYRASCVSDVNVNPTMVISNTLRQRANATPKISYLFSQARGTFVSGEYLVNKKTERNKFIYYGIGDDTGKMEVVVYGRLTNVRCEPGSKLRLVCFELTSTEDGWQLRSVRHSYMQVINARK
Procedure: FIG. 8D depicts B16 cells were treated with vehicle (DMSO) or PRMT5 inhibitor (PRMT5i; EPZ015666, 10 μM) for 48. IP followed by IB of B16 cells lysates (1.5 mg) was performed with the indicated antibodies. SYM10 indicates anti-symmetric dimethyl arginine antibody (Millipore). FIGS. 8E and 8F depict A375 (FIG. 8E) or B16 (FIG. 8F) cells treated with vehicle or a PRMT5 inhibitor (EPZ015666) as above before lysates [A375 (1.0 mg), B16 (2.5 mg)] were prepared and subjected to IP followed by immunoblotting with indicated antibodies. FIG. 8G depicts B16 cells stably expressing indicated constructs were treated 24 h with DMSO or PRMT5i before lysates were IP'ed with V5 antibody and immunoblotted with indicated antibodies.
Immunoblotting was performed using standard protocols. Melanoma cells were lysed by incubation in RIPA buffer [50 mM Tris-HC1, pH7.4, 1% (v/v) NP40, 0.1% (w/v) sodium deoxycholate, 0.1% (w/v) sodium dodecyl sulfate, 150 mM NaCl, 1mM EDTA, and protease and phosphatase inhibitor cocktails (Thermo Fisher Scientific)] and freeze-thawed 3 times. For immunoprecipitation HEK293T cells were lysed in 1% Triton X-100 buffer [50 mM Tris-HC1, pH7.4, 1% (v/v) Triton X-100, 150 mM NaCl, 1 mM EDTA, and protease and phosphatase inhibitor cocktails (Thermo Fisher Scientific)] and freeze-thawed 3 times. […]

[2] = target: T3, Gamma-interferon-inducible protein 16 (IFI16) (human, UniProt Q16666 1-785); test: co-immunoprecipitation and immunoblot, human melanoma cell lysates (FIGS. 8C, 10C)
T3 construct: Endogenous protein in WM115 / A375
T3 sequence: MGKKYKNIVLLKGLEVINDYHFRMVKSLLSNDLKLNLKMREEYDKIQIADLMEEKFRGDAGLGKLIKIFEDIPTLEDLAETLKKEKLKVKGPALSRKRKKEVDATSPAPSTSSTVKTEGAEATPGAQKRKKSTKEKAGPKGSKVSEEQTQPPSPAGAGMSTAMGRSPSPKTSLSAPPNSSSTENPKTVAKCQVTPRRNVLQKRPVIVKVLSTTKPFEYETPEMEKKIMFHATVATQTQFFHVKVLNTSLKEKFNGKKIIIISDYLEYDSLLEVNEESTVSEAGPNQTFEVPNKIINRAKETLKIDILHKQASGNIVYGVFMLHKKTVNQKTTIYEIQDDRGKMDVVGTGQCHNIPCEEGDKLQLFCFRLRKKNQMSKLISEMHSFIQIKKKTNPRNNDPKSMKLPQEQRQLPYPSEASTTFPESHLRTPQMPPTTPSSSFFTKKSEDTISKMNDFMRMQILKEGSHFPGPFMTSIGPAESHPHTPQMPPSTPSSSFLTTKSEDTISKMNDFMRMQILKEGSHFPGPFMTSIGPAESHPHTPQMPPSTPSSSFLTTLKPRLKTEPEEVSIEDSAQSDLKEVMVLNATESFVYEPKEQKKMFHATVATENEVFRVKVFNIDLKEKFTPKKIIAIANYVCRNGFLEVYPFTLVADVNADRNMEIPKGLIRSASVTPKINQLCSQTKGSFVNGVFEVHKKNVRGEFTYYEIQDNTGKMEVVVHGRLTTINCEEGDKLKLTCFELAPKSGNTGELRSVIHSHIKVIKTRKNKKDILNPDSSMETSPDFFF

binding result (Flag-tagged SHARPIN): binds
B1: MYL12A (other, human, UniProt P19105 1-171, looked up)
chain: MSSKRTKTKTKKRPQRATSNVFAMFDQSQIQEFKEAFNMIDQNRDGFIDKEDLHDMLASLGKNPTDEYLDAMMNEAPGPINFTMFLTMFGEKLNGTDPEDVIRNAFACFDEEATGTIQEDYLRELLTTMGDRFTDEEVDELYREAPIDKKGNFNYIEFTRILKHGAKDKDD
notes: endogenous protein co-purified from WM115 lysate

binding result [1]: binds
B2: SHARPIN (endogenous, murine B16 melanoma cells) (other, mouse, UniProt Q91WA6 1-380, looked up)
chain: MSPPAGGAAVAADPASPVVLLAVHAAVRPLGAGQDAEAQPRKLQLIADPERPGRFRLGLLGTEPGAVSLEWPLEAICYTVRGPNQHELQPPPGGPGTFSVHFLDPEEAQQWAALVRDATAEGQNGSGSPAPAPAPAMCPISPPCSSMAQIPKATQPEVDLPQSSGNFKKEELATRLSQAIAGGDEKAAAQVAAVLAQHHVALNVQLMEAWFPPGPIRLQVTVEDATSVLSSSSSAHVSLKIHPHCSIAALQDQVFSEFGFPPAVQRWVIGRCLCMPERSLASYGVSQDGDPAFLYLLSAPREVSGQSLQNSKMDRKLGLFPQSLGLPHDLQPSSSSLPSPSQPGWSCPSCTFINASNRPGCEMCSTQRPCAWDPLAAAST

binding result (Flag-tagged SHARPIN): binds
B3: MYL128 (other, human, UniProt O14950 1-172, looked up)
chain: MSSKKAKTKTTKKRPQRATSNVFAMFDQSQIQEFKEAFNMIDQNRDGFIDKEDLHDMLASLGKNPTDAYLDAMMNEAPGPINFTMFLTMFGEKLNGTDPEDVIRNAFACFDEEATGTIQEDYLRELLTTMGDRFTDEEVDELYREAPIDKKGNFNYIEFTRILKHGAKDKDD
notes: endogenous protein co-purified from WM115 lysate; also called MYL12B

binding result [2]: binds
B4: SHARPIN (endogenous, human melanoma cells WM115 / A375) (other, UniProt Q9H0F6 1-387, looked up)
chain: T1 sequence (looked up)

binding result (Flag-tagged SHARPIN): binds
B5: GSTP1 (other, human, UniProt P09211 2-210, looked up)
chain: PPYTVVYFPVRGRCAALRMLLADQGQSWKEEVVTVETWQEGSLKASCLYGQLPKFQDGDLTLYQSNTILRHLGRTLGLYGKDQQEAALVDMVNDGVEDLRCKYISLIYTNYEAGKDDYVKALPGQLKPFETLLSQNQGGKTFIVGDQISFADYNLLDLLLIHEVLAPGCLDAFPLLSAYVGRLSARPKLKAFLASPEYVNLPINGNGKQ
notes: as for B1

binding result (Flag-tagged SHARPIN): binds
B6: SLC25A4 (other, human, UniProt P12235 2-298, looked up)
chain: GDHAWSFLKDFLAGGVAAAVSKTAVAPIERVKLLLQVQHASKQISAEKQYKGIIDCVVRIPKEQGFLSFWRGNLANVIRYFPTQALNFAFKDKYKQLFLGGVDRHKQFWRYFAGNLASGGAAGATSLCFVYPLDFARTRLAADVGKGAAQREFHGLGDCIIKIFKSDGLRGLYQGFNVSVQGIIIYRAAYFGVYDTAKGMLPDPKNVHIFVSWMIAQSVTAVAGLVSYPFDTVRRRMMMQSGRKGADIMYTGTVDCWRKIAKDEGAKAFFKGAWSNVLRGMGGAFVLVLYDEIKKYV
notes: as for B1
